Consider 1 substance from PMC7305185.

The target in this data set is His32 (UniProt position 32, AAQLPHDYCTT). In words: NMR. As to conditions: 20 °C; McIlvaine (phosphate-citrate) buffer with 2 mM DTT; Apo five-phospho 4E-BP2. The folded β-domain is populated at neutral pH and undergoes non-cooperative acid denaturation as pH is lowered.

Values joined by “and” are separate entries in the source; they are usually repeats but may differ in a detail not shown here. Equal values may be shown once.

In general, pKa refers to the pH at which an ionisable group is half protonated. Low values mean a stronger acid or weaker base, high ones a weaker acid or stronger base. On to “Eukaryotic translation initiation factor 4E-binding protein 2 (4E-BP2), five-phospho form (5p-4E-BP2) (Homo sapiens (inferred; species of the construct not explicitly stated))”, for which the pKa is 6.0 ± 0.2 and 5.9 ± 0.1 and 6.0 ± 0.3.
